# Patent US5731419
# Target: glutathione reductase (Type III, Sigma)
Substance,remaining glutathione reductase activity after denaturation (percent of control) (scale: % of control activity),"remaining glutathione reductase activity after denaturation (percent of control) (% of control activity (-20° C., 1 µg/ml))"
"Bovine serum albumin (Pharmacia, DNase free 10 mg/ml) (from UniProt P02769)",71,–
"Wcs120 protein (50 kDa protein), expressed in E. coli from pET11a and purified",–,40
"WCOR410 protein, expressed from pET22b and purified with the His*Bind buffer kit",–,42
